For three substances, stoichiometry N, p65 nuclear translocation in HEp2 cells, % of exp + cells with nuc p65 (TR > 1) and NFκB luciferase reporter assay in HEp2 cells, luciferase against empty vector results are on record in publication PMC3192311.

In assay [1] the target is LMP-1 TM5 D150A synthetic peptide (Epstein-Barr virus). Kind of assay: AUC.
Assay [2] has as its target Latent Membrane Protein 1 D150A, full length (Epstein-Barr virus) (UniProt P03230).
For assay [3] the target is unchanged. This is another data set of the same source.
Assay [4] concerns the target LMP-1 transmembrane helix 1 synthetic peptide (TM1) (Epstein-Barr virus). The experiment in a line: AUC.

Values joined by “and” are separate entries in the source; they are usually repeats but may differ in a detail not shown here. Equal entries are not always repeated.

As usually defined, the stoichiometry N is a count of units in the complex or per binding partner. LMP-1 TM5 D150A synthetic peptide: the stoichiometry N in assay [1] was 2.
With “Latent Membrane Protein 1 D150A, full length (from UniProt P03230 1-386) (natural protein)”, the p65 nuclear translocation in HEp2 cells, % of exp + cells with nuc p65 (TR > 1) in assay [2] was determined as 38%. The same substance gave an NFκB luciferase reporter assay in HEp2 cells, luciferase against empty vector in assay [3] of 1.2 times.
With “LMP-1 transmembrane helix 1 synthetic peptide (TM1)”, the stoichiometry N in assay [4] was 2 and 4.
